Values quoted from earlier work as cited in publication PMC2812830.

Biological target: LAT pY191 phosphopeptide pY191 peptide (Homo sapiens) (UniProt O43561)
Assay: ITC

In the case of Grb2 (from UniProt P62993), the Kd is given as 286 nM.
